Results reported in PMC9319256, “Human Enzyme PADI4 Binds to the Nuclear Carrier Importin α3” (Cells, 2022).

Assays:
Impα3 [1] = target: T1, Impα3 (Homo sapiens, UniProt O00629); assay: Fluorescence titration of PADI4 with Impα3; type: binding; details: fluorescence at 330 nm; 3 µM PADI4, 0–25 µM importin; 20 mM Tris pH 7.5, 5 mM TCEP, 150 mM NaCl, 5% glycerol, 25 °C; titration repeated three times; ± fitting error
T1 construct: made in house
T1 sequence (O00629 1-521): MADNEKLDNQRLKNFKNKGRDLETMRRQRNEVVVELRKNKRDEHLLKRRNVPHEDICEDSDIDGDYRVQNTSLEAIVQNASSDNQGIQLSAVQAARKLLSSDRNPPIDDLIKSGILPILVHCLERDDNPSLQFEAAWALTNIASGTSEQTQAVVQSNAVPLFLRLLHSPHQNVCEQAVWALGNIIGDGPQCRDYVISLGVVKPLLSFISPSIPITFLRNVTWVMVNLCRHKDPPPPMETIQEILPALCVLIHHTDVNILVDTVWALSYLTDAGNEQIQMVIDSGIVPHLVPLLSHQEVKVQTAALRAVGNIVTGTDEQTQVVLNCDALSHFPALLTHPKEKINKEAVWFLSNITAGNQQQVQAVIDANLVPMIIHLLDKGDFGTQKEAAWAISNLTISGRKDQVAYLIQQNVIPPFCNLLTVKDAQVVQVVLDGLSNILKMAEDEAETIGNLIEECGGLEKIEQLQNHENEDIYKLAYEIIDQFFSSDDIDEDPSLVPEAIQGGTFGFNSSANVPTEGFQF
Experimental: (§1) For the titration between either Impα3 or ΔImpα3 and intact PADI4, increasing amounts of the corresponding importin species, in the concentration range 0–25 µM, were added to a solution with a fixed concentration of intact PADI4 (3 µM). Experiments were carried out in 20 mM Tris buffer (pH 7.5), 5 mM TCEP, 150 mM NaCl, and 5% glycerol at 25 °C (the storage buffer of PADI4). The experimental setup was the same as in the steady-state fluorescence experiments. Blank corrections containing the amount of each importin species were subtracted. Inner-filter effects were corrected. Each titration (Impα3 with PADI4 or ΔImpα3 with PADI4) was repeated three times, using new samples. In the three cases, the variations in the results were lower than 10%.
(§2) Handling and preparation of samples were the same described in Section 2.4.1. The dissociation constant of the corresponding complex, Kd, was calculated by fitting the binding isotherm to the general binding model, explicitly considering ligand depletion. […] Fitting to Equation (1) was carried out using KaleidaGraph (Synergy software, Reading, PA, USA).

ΔImpα3 [2] = assay: Fluorescence titration of PADI4 with ΔImpα3; type: binding, human; details: fluorescence at 330 nm; 3 µM PADI4, 0–25 µM importin; 20 mM Tris pH 7.5, 5 mM TCEP, 150 mM NaCl, 5% glycerol, 25 °C; titration repeated three times; ± fitting error
Experimental: as §1, §2

Impα3 [3] = target: T1, Impα3; assay: Steady-state fluorescence, complex versus addition spectrum, Impα3; type: binding; details: 20 µM PADI4 or peptide, 2 µM Impα3; 50 mM sodium phosphate pH 7.0, 25 °C; excitation 280 or 295 nm; triplicates
Experimental: Spectra were collected on a Cary Varian spectrofluorometer (Agilent, Santa Clara, CA, USA), interfaced with a Peltier unit. Following the standard protocols used in our laboratories, the samples were prepared the day before and left overnight at 5 °C; before experiments, samples were left for 1 h at 25 °C, where experiments were acquired. A 1 cm pathlength quartz cell (Hellma, Kruibeke, Belgium) was used. The concentration of PADI4 or NLS1/2-PADI4 peptides was 20 µM, and that of each importin species was 2 µM. Samples containing the corresponding isolated peptides, the isolated PADI4, the isolated corresponding importin species, and the corresponding mixtures (at the concentrations indicated above) were prepared. Experiments were performed with samples in 50 mM sodium phosphate buffer, pH 7.0. Fluorescence experiments were repeated in triplicates with newly prepared samples. Variations of results among the experiments were lower than 5%.
Polypeptide samples were excited either at 280 or 295 nm (although NLS2-PADI4 has only a single […]). The other experimental parameters used in the experiments have been described elsewhere. Appropriate blank corrections were made in all spectra.

Impα3 [4] = target: T1, Impα3; assay: Far-UV CD, complex versus addition spectrum, Impα3; type: binding; details: 25 °C; average of six scans
Text: Far-UV CD spectra were collected on a Jasco J810 spectropolarimeter (Jasco, Tokyo, Japan) interfaced with a Peltier unit. The instrument was periodically calibrated with (+)-10-camphorsulfonic acid. A cell of path length 0.1 cm was used (Hellma, Kruibeke, Belgium). All spectra were corrected by subtracting the corresponding baseline. Concentration of each polypeptide (importin species and either NLS1/2-PADI4 or PADI4) and the buffers were the same used in the fluorescence experiments (Section 2.4).
Isothermal wavelength spectra of each isolated macromolecule and that of the complex were acquired as an average of six scans, at a scan speed of 50 nm/min, with a response time of 2 s and a bandwidth of 1 nm. Handling and preparation of samples were the same described in Section 2.4.1.

Impα3 [5] = target: T1, Impα3; assay: Isothermal titration calorimetry (ITC), Impα3; type: binding
Experimental: (§3) Calorimetric titrations for testing the interaction of PADI4, as well as for the interaction of NLS1/2-PADI4 peptides, with both importins, Impα3 and ΔImpα3, were carried out in an Auto-iTC200 automated high-sensitivity calorimeter (MicroCal, Malvern-Panalytical, Malvern, UK). Experiments were performed in 20 mM Tris buffer (pH 7.5), 5 mM TCEP, 150 mM NaCl, and 5% glycerol at 25 °C. PADI4 or the peptide solution (100 μM) in the injection syringe was titrated into the importin solution (10 μM) in the calorimetric cell. The remaining experimental and processing details have been described previously. Due to the presence of glycerol in solution, background injection (included as an adjustable parameter in data fitting) was rather large. The data analysis was conducted in Origin 7.0 (OriginLab, Northampton, MA, USA) with user-defined fitting functions.

ΔImpα3 [6] = assay: Isothermal titration calorimetry (ITC), ΔImpα3; type: binding, human
Experimental: as §3

[7] = Impα3, pH 7.5, 25 °C, 95% confidence interval in parentheses

- Kd (Impα3 [1]): 3.9 ± 0.8 µM
- Kd (ΔImpα3 [2]): 6 ± 1 µM
- ΔG (Impα3 [5]; Impα3, pH 7.5, 25 °C): -7.3 kcal/mol
- n (binding stoichiometry or percentage of binding-competent protein) (Impα3 [5]; [7]): 0.97 (0.94, 1.00)
- ΔH (binding enthalpy) (Impα3 [5]; [7]): −65.5 (−72.0, −60.5) kcal/mol
- Ka (association constant) (Impα3 [5]; PADI4 or peptide (100 μM) titrated into Impα3 (10 μM), 20 mM Tris pH 7.5, 5 mM TCEP, 150 mM NaCl, 5% glycerol, 25 °C, 95% confidence interval in parentheses): 2.1 (1.7, 2.5) 10^5 M^−1
- Kd (Impα3 [5]; PADI4 or peptide (100 μM) titrated into Impα3 (10 μM), 20 mM Tris pH 7.5, 5 mM TCEP, 150 mM NaCl, 5% glycerol, 25 °C, 95% confidence interval in parentheses, read-out: Kd (dissociation constant)): 4.8 µM
- Kd (ΔImpα3 [6]; PADI4 or peptide (100 μM) titrated into ΔImpα3 (10 μM), 20 mM Tris pH 7.5, 5 mM TCEP, 150 mM NaCl, 5% glycerol, 25 °C, 95% confidence interval in parentheses, read-out: Kd (dissociation constant)): 1300 nM
Substance: PADI4: human peptidyl-arginine deiminase 4, intact protein, purified as previously described
- change in fluorescence spectrum of complex versus addition spectrum (Impα3 [3]): a variation in the fluorescence intensity
- change in far-UV CD spectrum of complex versus addition spectrum (Impα3 [4]): the addition spectrum was not very different from that of the complex
- Ka (association constant) (ΔImpα3 [6]; PADI4 or peptide (100 μM) titrated into ΔImpα3 (10 μM), 20 mM Tris pH 7.5, 5 mM TCEP, 150 mM NaCl, 5% glycerol, 25 °C, 95% confidence interval in parentheses): 7.8 (7.3, 8.5) 10^5 M^−1
- -TΔS (ΔImpα3 [6]; ΔImpα3, pH 7.5, 25 °C): -30.4 kcal/mol
- ΔG (ΔImpα3 [6]; ΔImpα3, pH 7.5, 25 °C): -8.0 kcal/mol
